Reference: PMC6134095 (2018)

Columns and labels:
[1] = target: T1, FtsQ (58–276), periplasmic domain of E. coli FtsQ (Escherichia coli strain K-12, UniProt P06136 58-276); assay: SPR; major phase
[2] = target: T1, FtsQ (58–276), periplasmic domain of E. …; assay: SPR; minor phase
[3] = target: T1, FtsQ (58–276), periplasmic domain of E. …; assay: SPR; minor phase; remark: listed apart in the source
[4] = target: T1, FtsQ (58–276), periplasmic domain of E. …; assay: SPR

T1 sequence (P06136 58-276): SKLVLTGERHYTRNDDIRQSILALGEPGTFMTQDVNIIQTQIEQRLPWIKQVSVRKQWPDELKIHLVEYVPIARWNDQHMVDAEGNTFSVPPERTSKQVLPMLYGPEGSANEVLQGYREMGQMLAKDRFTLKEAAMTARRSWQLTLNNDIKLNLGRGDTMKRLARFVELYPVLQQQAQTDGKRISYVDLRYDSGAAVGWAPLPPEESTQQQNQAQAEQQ

B1: FtsB (22–103), periplasmic domain of E. coli FtsB (domain or fragment)
chain: GKNGIHDYTRVNDDVAAQQATNAKLKARNDQLFAEIDDLNGGQEALEERARNELSMTRPGETFYRLVPDASKRAQSAGQNNR
[1]
  koff: 0.00021 s⁻¹
[2]
  Kd: 11 µM
[3]
  koff: 0.031 s⁻¹

B2: FtsN (58–320) plus FtsB (22–103), bound together (other)
chain 1: B1 chain
chain 2: HKKEESETLQSQKVTGNGLPPKPEERWRYIKELESRQPGVRAPTEPSAGGEVKTPEQLTPEQRQLLEQMQADMRQQPTQLVEVPWNEQTPEQRQQTLQRQRQAQQLAEQQRLAQQSRTTEQSWQQQTRTSQAAPVQAQPRQSKPASSQQPYQDLLQTPAHTTAQSKPQQAAPVARAADAPKPTAEKKDERRWMVQCGSFRGAEQAETVRAQLAFEGFDSKITTNNGWNRVVIGPVKGKENADSTLNRLKMAGHTNCIRLAAGG
[1]
  koff: 8.3e-05 s⁻¹
[2]
  Kd: 5.6 µM
[3]
  koff: 0.03 s⁻¹

B3: FtsN (57–319), periplasmic domain of E. coli FtsN (domain or fragment)
chain: B2 chain 2
[4]
  koff: 0.076 s⁻¹
